# Data published in paper PMC8145704, “Conformational Plasticity of Hepatitis B Core Protein Spikes Promotes Peptide Binding Independent of the Secretion Phenotype” (Microorganisms, 2021).
# T1: WT-HBc capsids (hepatitis B core protein, genotype D; strain ayw; GenBank: V01460.1) (Hepatitis B virus (genotype D; strain ayw)), P03146
# T1 chain: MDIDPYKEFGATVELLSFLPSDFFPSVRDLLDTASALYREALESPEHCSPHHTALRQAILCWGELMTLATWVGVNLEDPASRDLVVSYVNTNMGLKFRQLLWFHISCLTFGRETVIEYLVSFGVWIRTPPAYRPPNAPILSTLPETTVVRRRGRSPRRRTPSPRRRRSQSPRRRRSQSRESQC
# B1: WT-HBc capsids (hepatitis B core protein, genotype D; strain ayw; GenBank: V01460.1), P03146 1-183 (natural protein)
# chain: T1 chain
# Biological target: T1, WT-HBc capsids (hepatitis B core …)
# Test: negative-staining electron microscopy
# Settings: remark: other sources report otherwise
binder,measurement,value
B1,stoichiometry N (subunits per capsid),240
